Experimental data taken from IntAct's records for PubMed 20042240.

B1: Complement factor H-related protein 4 (Homo sapiens), Q92496-1 (parent)
chain: MLLLINVILTLWVSCANGQEVKPCDFPEIQHGGLYYKSLRRLYFPAAAGQSYSYYCDQNFVTPSGSYWDYIHCTQDGWSPTVPCLRTCSKSDVEIENGFISESSSIYILNEETQYNCKPGYATAEGNSSGSITCLQNGWSTQPICIKFCDMPVFENSRAKSNGMWFKLHDTLDYECYDGYESSYGNTTDSIVCGEDGWSHLPTCYNSSENCGPPPPISNGDTTSFPQKVYLPWSRVEYQCQSYYELQGSKYVTCSNGDWSEPPRCISMKPCEFPEIQHGHLYYENTRRPYFPVATGQSYSYYCDQNFVTPSGSYWDYIHCTQDGWLPTVPCLRTCSKSDIEIENGFISESSSIYILNKEIQYKCKPGYATADGNSSGSITCLQNGWSAQPICIKFCDMPVFENSRAKSNGMRFKLHDTLDYECYDGYEISYGNTTGSIVCGEDGWSHFPTCYNSSEKCGPPPPISNGDTTSFLLKVYVPQSRVEYQCQSYYELQGSNYVTCSNGEWSEPPRCIHPCIITEENMNKNNIQLKGKSDIKYYAKTGDTIEFMCKLGYNANTSVLSFQAVCREGIVEYPRCE
partner: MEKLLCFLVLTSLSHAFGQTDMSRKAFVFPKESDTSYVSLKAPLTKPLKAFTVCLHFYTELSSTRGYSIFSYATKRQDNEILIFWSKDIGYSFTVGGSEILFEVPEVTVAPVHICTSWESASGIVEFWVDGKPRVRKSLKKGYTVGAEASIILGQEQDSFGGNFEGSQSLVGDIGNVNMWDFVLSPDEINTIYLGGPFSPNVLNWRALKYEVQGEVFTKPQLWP

Assays:
Details in all cases: with crp_human CRP
crp_human CRP, P02741 [1] = variants of: B1
crp_human CRP, P02741 [2] = variants of: B1; remark: listed apart in the source
crp_human CRP, P02741 [3] = variants of: B1; remark: listed apart in the source

Row | effect of a mutation on the interaction (crp_human CRP, P02741 [1]) | effect of a mutation on the interaction (crp_human CRP, P02741 [2]) | effect of a mutation on the interaction (crp_human CRP, P02741 [3]) | Variant
1 | decreasing interaction strength | disrupting interaction strength | – | MLLLINVILTLWVSCANGQEVKPCDFPEIQHGGLYYASLAALYFPAAAGQSYSYYCDQNFVTPSGSYWDYIHCTQDGWSPTVPCLRTCSKSDVEIENGFISESSSIYILNEETQYNCKPGYATAEGNSSGSITCLQNGWSTQPICIKFCDMPVFENSRAKSNGMWFKLHDTLDYECYDGYESSYGNTTDSIVCGEDGWSHLPTCYNSSENCGPPPPISNGDTTSFPQKVYLPWSRVEYQCQSYYELQGSKYVTCSNGDWSEPPRCISMKPCEFPEIQHGHLYYENTRRPYFPVATGQSYSYYCDQNFVTPSGSYWDYIHCTQDGWLPTVPCLRTCSKSDIEIENGFISESSSIYILNKEIQYKCKPGYATADGNSSGSITCLQNGWSAQPICIKFCDMPVFENSRAKSNGMRFKLHDTLDYECYDGYEISYGNTTGSIVCGEDGWSHFPTCYNSSEKCGPPPPISNGDTTSFLLKVYVPQSRVEYQCQSYYELQGSNYVTCSNGEWSEPPRCIHPCIITEENMNKNNIQLKGKSDIKYYAKTGDTIEFMCKLGYNANTSVLSFQAVCREGIVEYPRCE [K37A;R40A;R41A]
2 | – | decreasing interaction strength | disrupting interaction strength | MLLLINVILTLWVSCANGQEVKPCDFPEIQHGGLAAKSLRRLYFPAAAGQSYSYYCDQNFVTPSGSYWDYIHCTQDGWSPTVPCLRTCSKSDVEIENGFISESSSIYILNEETQYNCKPGYATAEGNSSGSITCLQNGWSTQPICIKFCDMPVFENSRAKSNGMWFKLHDTLDYECYDGYESSYGNTTDSIVCGEDGWSHLPTCYNSSENCGPPPPISNGDTTSFPQKVYLPWSRVEYQCQSYYELQGSKYVTCSNGDWSEPPRCISMKPCEFPEIQHGHLYYENTRRPYFPVATGQSYSYYCDQNFVTPSGSYWDYIHCTQDGWLPTVPCLRTCSKSDIEIENGFISESSSIYILNKEIQYKCKPGYATADGNSSGSITCLQNGWSAQPICIKFCDMPVFENSRAKSNGMRFKLHDTLDYECYDGYEISYGNTTGSIVCGEDGWSHFPTCYNSSEKCGPPPPISNGDTTSFLLKVYVPQSRVEYQCQSYYELQGSNYVTCSNGEWSEPPRCIHPCIITEENMNKNNIQLKGKSDIKYYAKTGDTIEFMCKLGYNANTSVLSFQAVCREGIVEYPRCE [Y35A;Y36A]
3 | – | decreasing interaction strength | disrupting interaction strength | MLLLINVILTLWVSCANGQEVKPCDFPEIQHGGLYYASLRRLYFPAAAGQSYSYYCDQNFVTPSGSYWDYIHCTQDGWSPTVPCLRTCSKSDVEIENGFISESSSIYILNEETQYNCKPGYATAEGNSSGSITCLQNGWSTQPICIKFCDMPVFENSRAKSNGMWFKLHDTLDYECYDGYESSYGNTTDSIVCGEDGWSHLPTCYNSSENCGPPPPISNGDTTSFPQKVYLPWSRVEYQCQSYYELQGSKYVTCSNGDWSEPPRCISMKPCEFPEIQHGHLYYENTRRPYFPVATGQSYSYYCDQNFVTPSGSYWDYIHCTQDGWLPTVPCLRTCSKSDIEIENGFISESSSIYILNKEIQYKCKPGYATADGNSSGSITCLQNGWSAQPICIKFCDMPVFENSRAKSNGMRFKLHDTLDYECYDGYEISYGNTTGSIVCGEDGWSHFPTCYNSSEKCGPPPPISNGDTTSFLLKVYVPQSRVEYQCQSYYELQGSNYVTCSNGEWSEPPRCIHPCIITEENMNKNNIQLKGKSDIKYYAKTGDTIEFMCKLGYNANTSVLSFQAVCREGIVEYPRCE [K37A]
4 | – | disrupting interaction strength | – | MLLLINVILTLWVSCANGQEVKPCDFPEIQHGGLYYAALRRLYFPAAAGQSYSYYCDQNFVTPSGSYWDYIHCTQDGWSPTVPCLRTCSKSDVEIENGFISESSSIYILNEETQYNCKPGYATAEGNSSGSITCLQNGWSTQPICIKFCDMPVFENSRAKSNGMWFKLHDTLDYECYDGYESSYGNTTDSIVCGEDGWSHLPTCYNSSENCGPPPPISNGDTTSFPQKVYLPWSRVEYQCQSYYELQGSKYVTCSNGDWSEPPRCISMKPCEFPEIQHGHLYYENTRRPYFPVATGQSYSYYCDQNFVTPSGSYWDYIHCTQDGWLPTVPCLRTCSKSDIEIENGFISESSSIYILNKEIQYKCKPGYATADGNSSGSITCLQNGWSAQPICIKFCDMPVFENSRAKSNGMRFKLHDTLDYECYDGYEISYGNTTGSIVCGEDGWSHFPTCYNSSEKCGPPPPISNGDTTSFLLKVYVPQSRVEYQCQSYYELQGSNYVTCSNGEWSEPPRCIHPCIITEENMNKNNIQLKGKSDIKYYAKTGDTIEFMCKLGYNANTSVLSFQAVCREGIVEYPRCE [K37A;S38A]
5 | – | disrupting interaction strength | – | MLLLINVILTLWVSCANGQEVKPCDFPEIQHGGLYYAAARRLYFPAAAGQSYSYYCDQNFVTPSGSYWDYIHCTQDGWSPTVPCLRTCSKSDVEIENGFISESSSIYILNEETQYNCKPGYATAEGNSSGSITCLQNGWSTQPICIKFCDMPVFENSRAKSNGMWFKLHDTLDYECYDGYESSYGNTTDSIVCGEDGWSHLPTCYNSSENCGPPPPISNGDTTSFPQKVYLPWSRVEYQCQSYYELQGSKYVTCSNGDWSEPPRCISMKPCEFPEIQHGHLYYENTRRPYFPVATGQSYSYYCDQNFVTPSGSYWDYIHCTQDGWLPTVPCLRTCSKSDIEIENGFISESSSIYILNKEIQYKCKPGYATADGNSSGSITCLQNGWSAQPICIKFCDMPVFENSRAKSNGMRFKLHDTLDYECYDGYEISYGNTTGSIVCGEDGWSHFPTCYNSSEKCGPPPPISNGDTTSFLLKVYVPQSRVEYQCQSYYELQGSNYVTCSNGEWSEPPRCIHPCIITEENMNKNNIQLKGKSDIKYYAKTGDTIEFMCKLGYNANTSVLSFQAVCREGIVEYPRCE [K37A;S38A;L39A]
6 | – | with no effect | decreasing interaction strength | MLLLINVILTLWVSCANGQEVKPCDFPEIQHGGLYYKALRRLYFPAAAGQSYSYYCDQNFVTPSGSYWDYIHCTQDGWSPTVPCLRTCSKSDVEIENGFISESSSIYILNEETQYNCKPGYATAEGNSSGSITCLQNGWSTQPICIKFCDMPVFENSRAKSNGMWFKLHDTLDYECYDGYESSYGNTTDSIVCGEDGWSHLPTCYNSSENCGPPPPISNGDTTSFPQKVYLPWSRVEYQCQSYYELQGSKYVTCSNGDWSEPPRCISMKPCEFPEIQHGHLYYENTRRPYFPVATGQSYSYYCDQNFVTPSGSYWDYIHCTQDGWLPTVPCLRTCSKSDIEIENGFISESSSIYILNKEIQYKCKPGYATADGNSSGSITCLQNGWSAQPICIKFCDMPVFENSRAKSNGMRFKLHDTLDYECYDGYEISYGNTTGSIVCGEDGWSHFPTCYNSSEKCGPPPPISNGDTTSFLLKVYVPQSRVEYQCQSYYELQGSNYVTCSNGEWSEPPRCIHPCIITEENMNKNNIQLKGKSDIKYYAKTGDTIEFMCKLGYNANTSVLSFQAVCREGIVEYPRCE [S38A]
